Patent publication US6730296B1

Target: fusin/CXCR4 receptor (human) (UniProt P61073)

- anti-fusin antibody staining of Jurkat cells after 3-hour incubation at 37 degrees C, Median Channel (Median Channel): 22.3
Substance: purified human SDF-1β chemokine, prepared in E. coli and containing an N-terminal methionine residue (from UniProt P48061) (ligand)
